Substrate in series [1]: C[C@@](O)(CCOP(=O)(O)O)CC(=O)O
Nature of the series: purified protein. It is filed as biochemical, Saccharomyces cerevisiae. The following applies: co-substrate ATP (0.1–8.0 mM range), 10 mM MgCl2, 100 mM KCl, 200 mM Tris pH 7.2, 30°C.

Substrate in series [2]: Nc1ncnc2c1ncn2[C@@H]1O[C@H](COP(=O)(O)OP(=O)(O)OP(=O)(O)O)[C@@H](O)[C@H]1O
The series can be described thus: purified protein. It counts as biochemical, Saccharomyces cerevisiae. The following applies: co-substrate mevalonate-5-phosphate (0.2–10.0 mM range), 10 mM MgCl2, 100 mM KCl, 200 mM Tris pH 7.2, 30°C.

B1: phosphomevalonate kinase (PMK) from S. cerevisiae; PMK-His (Saccharomyces cerevisiae S288C) (protein)
chain: MSELRAFSAPGKALLAGGYLVLDTKYEAFVVGLSARMHAVAHPYGSLQGSDKFEVRVKSKQFKDGEWLYHISPKSGFIPVSIGGSKNPFIEKVIANVFSYFKPNMDDYCNRNLFVIDIFSDDAYHSQEDSVTEHRGNRRLSFHSHRIEEVPKTGLGSSAGLVTVLTTALASFFVSDLENNVDKYREVIHNLAQVAHCQAQGKIGSGFDVAAAAYGSIRYRRFPPALISNLPDIGSATYGSKLAHLVDEEDWNITIKSNHLPSGLTLWMGDIKNGSETVKLVQKVKNWYDSHMPESLKIYTELDHANSRFMDGLSKLDRLHETHDDYSDQIFESLERNDCTCQKYPEITEVRDAVATIRRSFRKITKESGADIEPPVQTSLLDDCQTLKGVLTCLIPGAGGYDAIAVITKQDVDLRAQTANDKRFSKVQWLDVTQADWGVRKEKDPETYLDK
notes: E. coli codon-optimized gene in pET-52b+, C-terminal 6xHis tag (removal not mentioned), expressed in E. coli BL21(DE3), Ni-NTA purified
In the case of B1, the figures for the Km in “purified protein [1]” and in “purified protein [2]” were 885 µM and 98.3 µM, respectively.

In general, Km refers to the substrate concentration at which the rate is half of its maximum.

These data come from paper PMC3903622, “Kinetics of Phosphomevalonate Kinase from Saccharomyces cerevisiae” (PLoS ONE, 2014).
